The source of these data is patent US20030059436A1, “Band 3 antigenic peptides, malaria polypeptides and uses thereof” (priority 2001, published 2003).

Experiment [1] has as its target mouse erythroid Band 3 protein on wild-type mouse RBCs (mouse) (UniProt P04919). Description: 32P-MSP119 on intact Band 3 (-/-) mouse RBCs against untreated wild-type mouse RBCs in suspension.
Experiment [2] has as its target human erythroid Band 3 protein (Anion Exchanger 1) on human RBCs (human) (UniProt P02730). In words: 32P-MSP119 on intact human RBCs in suspension; RBCs treated with chymotrypsin 10 min, against untreated RBCs.
In experiment [3] the target is mouse erythroid Band 3 protein on wild-type mouse RBCs (mouse) (UniProt P04919). In words: 32P-MSP119 on intact mouse RBCs in suspension; RBCs treated with chymotrypsin 40 min, against untreated RBCs.
For experiment [4], the target named is human erythroid Band 3 protein (Anion Exchanger 1) on human RBCs (human) (UniProt P02730). In words: 32P-MSP119 on intact human RBCs in suspension; RBCs treated with neuraminidase, against untreated RBCs.
For experiment [5] the target is unchanged. Description: 32P-MSP119 on intact human RBCs in suspension; RBCs treated with chymotrypsin 40 min, against untreated RBCs.
Experiment [6] has as its target mouse erythroid Band 3 protein on wild-type mouse RBCs (mouse) (UniProt P04919). In words: 32P-MSP119 on intact mouse RBCs in suspension; RBCs treated with neuraminidase, against untreated RBCs.
Experiment [7] concerns GST-MSP138. Description: Solution-binding assay, GST-MSP138 on beads. Details: species or system P. falciparum (FCB1 strain). Particulars: 32P-labeled 5BC 21, 42, 84, 168 μM. The source says: (§1) MSP138 (SEQ ID NO:33), MSP142 (SEQ ID NO:34), and MSP119 (SEQ ID NO:35) genes were amplified from a P. falciparum (FCB1 strain) cDNA library (J. B. Dame) by PCR using the following primers: 5′-[…] (SEQ ID NO: 14, MSP138, sense, 3121-3133, Xhol), 5′-[…] (SEQ ID NO:15, MSP138, antisense, 4200-4193, NotI), 5′-[…] (SEQ ID NO:16, MSP142, sense, 4201-4218, XhoI), 5′-[…] (SEQ ID NO:17, MSP142, antisense, 5334-5321 NotI), 5′-[…]: (SEQ ID NO:18, MSP119, sense, 4993-5009 BamHI), 5′-[…] (SEQ ID NO:19, MSP119, antisense, 5334-5318, EcoRI). Similar cDNA libraries as well as CDNA pools are available to the public from MR4, ATCC (www.malaria.atcc.org).
(§2) Primers: 5′-[…] […] (SEQ ID NO:26, 6AB, antisense, 2640-2620, EcoRI).

For experiment [8], the target named is T1, GST-MSP142 (Plasmodium falciparum, UniProt P04933).
T1 construct: amino acids 1264-1639; made in house; host or cells: E. coli DH5α (pGEX6P-2)
Description: Solution-binding assay, GST-MSP142 on beads. Further details: species or system P. falciparum (FCB1 strain).
Text: as §1, §2

Experiment [9] has as its target P. falciparum (3D7 strain) merozoite proteins (approximate molecular masses 175, 150, 125, 52, 48, 42, and 35 kDa). Description: cell-based or functional assay.
Experiment [10] relates to RBCs. Conditions: literature reports; cited from earlier work.
Experiment [11] has as its target T2, GST-5ABC (Homo sapiens, UniProt P02730).
T2 construct: The 5ABC (amino acid 720-761), 5BC (731-761), and 6AB (807-842) genes were amplified from a human reticulocyte cDNA library; made in house; host or cells: E. coli (pGEX-2TK)
T2 sequence (P02730 720-761): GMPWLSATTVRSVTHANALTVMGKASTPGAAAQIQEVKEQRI
In words: Native MSP1 binding to GST-5ABC beads. Conditions: Triton X-100 parasite extract, 22-24 h at 4° C.; GST beads as control.

Experiment [12] has as its target GST-MSP138 (P. falciparum FCB1 MSP1 38 kDa fragment as GST fusion protein, C-terminal truncated forms) (Plasmodium falciparum (FCB1 strain)) [GST: P08515]. In words: solution-binding assay, 32P-labeled peptide on GST fusion beads.
In experiment [13] the target is GST-MSP142 (P. falciparum FCB1 MSP1 42 kDa fragment as GST fusion protein) (Plasmodium falciparum (FCB1 strain)) [GST: P08515]. The experiment is described as above.
For experiment [14], the system named is human RBCs fixed in methanol. Conditions: GST-MSP142 1 μM, GST-MSP138 8 μM; GST alone did not bind. Here is the method:
(§3) RBCs freshly collected into citrate phosphate dextrose buffer were washed (3×) and resuspended in RPMI (20% hematocrit). Thin smears of RBCs on glass slides were allowed to air-dry and fixed in methanol (20-30 sec). The slides were washed with PBS (1×), blocked with 10% fetal bovine serum (FBS) in PBS (pH 7.4) for 1.5 h at 37° C., and again washed with PBS (5×, 10 min each). Fixed cells were incubated with GST-MSP142 (1 μM), GST-MSP138 (8 μM), or GST (9 μM) for 3.5 h at 37° C. in 10% FBS. Slide samples were washed with PBS (5×), incubated with goat anti-GST antibody (1:1,000, Amersham Pharmacia Biotech), washed again (5×), and incubated with rabbit anti-goat FITC-conjugated antibody (1:60, Sigma-Aldrich, St. Louis, Mo.). For visualizing spectrin, fixed cells treated with 10% FBS were incubated with a rabbit antibody raised against human spectrin (Sigma-Aldrich) followed by goat anti-rabbit FITC-conjugated antibody. All dilutions of proteins and antibodies were made in 10% FBS except FITC-conjugated antibodies.
(§4) First, the above-described RBC binding assay was performed using ^32P-labeled MSP119 and intact Band 3 (−/−) mouse RBCs in suspension. […] In the second method, we carried out an indirect immunofluorescence assay (IFA) using wild-type human and mouse RBCs and Band 3 (−/−) mouse RBCs fixed in methanol.

Experiment [15] has as its system mouse RBCs fixed in methanol. Particulars: GST-MSP142 1 μM, GST-MSP138 8 μM. Here is the method:
as §3, §4

Experiment [16] addresses T3, SV40 large T-antigen fused to GAL4 AD (pGADT7 vector), two-hybrid control (UniProt P03070 86-708).
T3 construct: Kit control; also called pGADT7-T
In words: yeast two-hybrid assay (positive control).

Experiment [17] deals with T3, SV40 large T-antigen fused to GAL4 AD …. In words: yeast two-hybrid assay (negative control).

Ends that are not written are not given here.

Sequence of human erythroid Band 3 protein (Anion Exchanger 1) on human RBCs (human) (P02730 whole entry, form in doubt): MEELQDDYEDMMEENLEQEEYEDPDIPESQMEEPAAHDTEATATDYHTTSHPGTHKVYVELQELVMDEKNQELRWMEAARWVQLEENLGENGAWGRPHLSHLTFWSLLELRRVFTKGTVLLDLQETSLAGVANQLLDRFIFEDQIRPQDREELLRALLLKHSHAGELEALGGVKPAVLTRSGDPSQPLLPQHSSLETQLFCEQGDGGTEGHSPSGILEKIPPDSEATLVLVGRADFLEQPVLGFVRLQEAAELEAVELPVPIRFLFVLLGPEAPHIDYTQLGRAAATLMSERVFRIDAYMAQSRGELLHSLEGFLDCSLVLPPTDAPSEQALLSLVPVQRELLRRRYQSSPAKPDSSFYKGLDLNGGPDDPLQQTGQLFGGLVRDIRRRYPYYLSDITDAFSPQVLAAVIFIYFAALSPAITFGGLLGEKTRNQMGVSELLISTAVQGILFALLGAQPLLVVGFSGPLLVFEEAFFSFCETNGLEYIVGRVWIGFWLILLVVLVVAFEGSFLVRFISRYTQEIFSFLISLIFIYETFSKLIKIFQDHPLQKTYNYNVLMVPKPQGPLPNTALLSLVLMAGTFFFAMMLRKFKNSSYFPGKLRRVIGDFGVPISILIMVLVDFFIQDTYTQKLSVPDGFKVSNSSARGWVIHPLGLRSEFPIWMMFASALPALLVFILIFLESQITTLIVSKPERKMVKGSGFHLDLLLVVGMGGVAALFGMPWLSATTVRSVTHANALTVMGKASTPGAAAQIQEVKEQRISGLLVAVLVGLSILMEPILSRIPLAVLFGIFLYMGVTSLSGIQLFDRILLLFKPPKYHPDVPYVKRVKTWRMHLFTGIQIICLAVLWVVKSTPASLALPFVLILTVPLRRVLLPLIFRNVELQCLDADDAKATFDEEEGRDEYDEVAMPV
Sequence of mouse erythroid Band 3 protein on wild-type mouse RBCs (mouse) (P04919 whole entry): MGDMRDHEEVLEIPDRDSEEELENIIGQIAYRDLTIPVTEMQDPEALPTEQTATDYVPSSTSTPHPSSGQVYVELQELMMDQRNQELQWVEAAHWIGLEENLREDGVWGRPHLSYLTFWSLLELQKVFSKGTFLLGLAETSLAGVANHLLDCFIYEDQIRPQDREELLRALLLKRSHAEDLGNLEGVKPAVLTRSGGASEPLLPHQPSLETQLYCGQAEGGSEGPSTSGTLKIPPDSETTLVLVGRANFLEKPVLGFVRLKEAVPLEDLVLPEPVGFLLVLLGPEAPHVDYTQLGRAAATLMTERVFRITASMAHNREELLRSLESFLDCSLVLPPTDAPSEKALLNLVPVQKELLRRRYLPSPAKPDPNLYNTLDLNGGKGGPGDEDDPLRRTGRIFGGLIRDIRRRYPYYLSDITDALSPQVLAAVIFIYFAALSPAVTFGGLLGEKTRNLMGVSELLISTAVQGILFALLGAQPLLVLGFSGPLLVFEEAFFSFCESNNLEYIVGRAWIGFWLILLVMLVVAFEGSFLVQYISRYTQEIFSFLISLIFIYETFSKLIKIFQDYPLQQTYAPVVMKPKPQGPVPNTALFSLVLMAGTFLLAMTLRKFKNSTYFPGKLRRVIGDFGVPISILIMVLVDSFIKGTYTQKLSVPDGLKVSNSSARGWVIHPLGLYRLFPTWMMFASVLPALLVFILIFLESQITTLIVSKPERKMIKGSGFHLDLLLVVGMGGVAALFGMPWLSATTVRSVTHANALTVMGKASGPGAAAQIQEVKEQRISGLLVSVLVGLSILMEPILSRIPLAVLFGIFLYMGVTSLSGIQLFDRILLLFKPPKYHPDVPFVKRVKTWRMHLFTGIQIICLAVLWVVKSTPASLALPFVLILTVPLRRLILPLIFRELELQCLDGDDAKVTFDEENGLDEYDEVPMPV
T1 sequence (P04933 1264-1639): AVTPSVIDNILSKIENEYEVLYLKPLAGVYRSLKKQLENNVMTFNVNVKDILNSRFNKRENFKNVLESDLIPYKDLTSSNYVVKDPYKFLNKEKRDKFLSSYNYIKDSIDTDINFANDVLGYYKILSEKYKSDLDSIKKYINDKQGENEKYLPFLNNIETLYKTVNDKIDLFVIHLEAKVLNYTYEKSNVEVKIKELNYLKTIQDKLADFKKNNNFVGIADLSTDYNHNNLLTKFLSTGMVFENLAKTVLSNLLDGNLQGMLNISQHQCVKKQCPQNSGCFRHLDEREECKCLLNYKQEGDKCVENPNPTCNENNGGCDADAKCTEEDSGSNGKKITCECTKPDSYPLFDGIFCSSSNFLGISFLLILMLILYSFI
T3 sequence (P03070 86-708 limits assumed): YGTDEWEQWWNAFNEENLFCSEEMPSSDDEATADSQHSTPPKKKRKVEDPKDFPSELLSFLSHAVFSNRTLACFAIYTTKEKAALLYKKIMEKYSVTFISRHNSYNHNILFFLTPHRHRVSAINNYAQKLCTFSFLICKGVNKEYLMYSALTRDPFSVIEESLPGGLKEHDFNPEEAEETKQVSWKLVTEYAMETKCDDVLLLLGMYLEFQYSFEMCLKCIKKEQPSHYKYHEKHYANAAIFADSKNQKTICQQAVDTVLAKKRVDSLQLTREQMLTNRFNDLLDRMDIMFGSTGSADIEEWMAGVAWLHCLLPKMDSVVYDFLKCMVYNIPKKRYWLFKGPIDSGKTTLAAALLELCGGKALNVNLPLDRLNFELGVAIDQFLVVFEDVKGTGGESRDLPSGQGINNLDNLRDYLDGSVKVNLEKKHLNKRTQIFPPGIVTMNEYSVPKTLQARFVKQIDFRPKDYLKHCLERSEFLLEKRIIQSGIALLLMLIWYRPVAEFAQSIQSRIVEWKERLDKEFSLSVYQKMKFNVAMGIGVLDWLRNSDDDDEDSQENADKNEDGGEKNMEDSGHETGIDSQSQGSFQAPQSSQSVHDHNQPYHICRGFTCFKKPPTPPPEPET
Sequence of GST-MSP138 (P. falciparum FCB1 MSP1 38 kDa fragment as GST fusion protein, C-terminal truncated forms) (Plasmodium falciparum (FCB1 strain)) [GST: P08515] (P08515 whole entry, the tested form may be a part): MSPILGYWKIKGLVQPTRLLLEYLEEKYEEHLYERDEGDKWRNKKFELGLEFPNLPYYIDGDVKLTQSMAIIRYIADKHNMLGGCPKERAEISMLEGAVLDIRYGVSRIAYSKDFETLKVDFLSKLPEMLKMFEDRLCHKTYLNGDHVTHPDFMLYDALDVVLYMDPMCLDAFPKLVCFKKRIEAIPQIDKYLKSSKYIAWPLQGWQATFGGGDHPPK
Sequence of GST-MSP142 (P. falciparum FCB1 MSP1 42 kDa fragment as GST fusion protein) (Plasmodium falciparum (FCB1 strain)) [GST: P08515] (P08515 whole entry, the tested form may be a part): as above

Turning to “32P-labeled MSP119 (P. falciparum FCB1 MSP1 19 kDa C-terminal fragment, GST removed with thrombin) (ligand)”, the reduction of radioactivity associated with Band 3 (-/-) mouse RBCs as compared to untreated wild-type mouse RBCs in [1] turned out to be 72%. In addition, the reduction in ability to bind MSP119 as compared to the untreated RBCs in [2] was found to be 30%; in experiment [3], 41%; in experiment [5] it was 37%. The increase in ability to bind MSP119 as compared to the untreated RBCs in [4] is 52%; in experiment [6], 51%.

By Kd is commonly meant a measure of binding affinity in units of concentration. Regarding “GMPWLSATTVRSVTHANALTVMGKASTPGAAAQIQEVKEQRI (not fully specified) [Peptide 5ABC, Recombinant human Band 3 peptide, amino acid 720-761, expressed as GST or GAL4 DNA-BD fusion]”, the “binding to GST-MSP138 on beads” value in experiment [7] is recorded as “specifically bound”. Moreover, the “binding to GST-MSP142 on beads” value in experiment [8] (32P-labeled 5ABC 10, 20, 40, 80 μM) is “concentration-dependent manner”. The molecule further came in with a Kd in experiment [8] (32P-labeled peptide, pH 7.4, 25° C., 3.5 h) of 36 µM.

In experiment [9], “Human Band 3 peptide 5C (amino acid 742-761), synthetic with N-terminal biotin tag” gave an IC50 values (50% inhibition in the parasite invasion of RBCs), 3H-hypoxanthine incorporation method of 591 µM.

Molecule “Human Band 3 peptide 6A (amino acid 807-826), synthetic with N-terminal biotin tag” registered an IC50 values (50% inhibition in the parasite invasion of RBCs), 3H-hypoxanthine incorporation method in experiment [9] of 316 µM.

“MSP1: P. falciparum merozoite surface protein-1, native full-length”: in experiment [10], the “binding to RBCs (earlier studies)” value was “bound to RBCs in sialic acid-dependent manner”. In addition, the “binding of radiolabeled native parasite protein to GST-5ABC beads” value in experiment [11] is listed as “bound specifically to the 5ABC domain”.

B1: 32P-labeled 5BC (recombinant human Band 3 amino acid 731-761, GST removed with thrombin) (peptide, not shown: small tags and cut ends)
peptide: SVTHANALTVMGKASTPGAAAQIQEVKEQRI
modifications: not checked
The molecule B1 returned a Kd in [12] of 67 µM. This lies in the double-digit micromolar range.

B2: 32P-labeled 5ABC (recombinant human Band 3 amino acid 720-761, GST removed with thrombin) (peptide, not shown: small tags and cut ends)
peptide: GMPWLSATTVRSVTHANALTVMGKASTPGAAAQIQEVKEQRI
modifications: not checked
The molecule B2 came in with a Kd in experiment [13] of 36 µM.

B3: MSP142: 42 kDa proteolytic fragment of P. falciparum MSP1 (FCB1 strain) (protein)
chain: AISVTMDNILSGFENEYDVIYLKPLAGVYRSLKKQIEKNIFTFNLNLNDILNSRLKKRKYFLDVLESDLMQFKHISSNEYIIEDSFKLLNSEQKNTLLKSYKYIKESVENDIKFAQEGISYYEKVLAKYKDDLESIKKVIKEEKEKFPSSPPTTPPSPAKTDEQKKESKFLPFLTNIETLYNNLVNKIDDYLINLKAKINDCNVEKDEAHVKITKLSDLKAIDDKIDLFKNPYDFEAIKKLINDDTKKDMLGKLLSTGLVQNFPNTIISKLIEGKFQDMLNISQHQCVKKQCPENSGCFRHLDEREECKCLLNYKQEGDKCVENPNPTCNENNGGCDADATCTEEDSGSSRKKITCECTKPDSYPLFDGIFCS
As for B3, the “binding to wild-type human RBCs (IFA)” value in experiment [14] was “bound”. The “binding to Band 3 (−/−) mouse RBCs (IFA)” value in experiment [15] is given as “neither GST-MSP142, GST-MSP138, nor GST alone bound”. Moreover, the “binding to wild-type mouse RBCs (IFA)” value in experiment [15] (GST alone did not bind) is recorded as “bound”. Further, in experiment [11], the “binding of radiolabeled native parasite protein to GST-5ABC beads” value is recorded as “bound specifically to the 5ABC domain”.

B4: p53 fused to GAL4 DNA-BD (pGBKT7 vector), two-hybrid control (other)
chain: MKLLSSIEQACDICRLKKLKCSKEKPKCAKCLKNNWECRYSPKTKRSPLTRAHLTEVESRLERLEQLFLLIFPREDLDMILKMDSLQDIKALLTGLFVQDNVNKDAVTDRLASVETDMPLTLRQHRISATSSSEESSNKGQRQLTVSPVTETPGPVAPAPATPWPLSSFVPSQKTYQGNYGFHLGFLQSGTAKSVMCTYSPPLNKLFCQLAKTCPVQLWVSATPPAGSRVRAMAIYKKSQHMTEVVRRCPHHERCSDGDGLAPPQHLIRVEGNLYPEYLEDRQTFRHSVVVPYEPPEAGSEYTTIHYKYMCNSSCMGGMNRRPILTIITLEDSSGNLLGRDSFEVRVCACPGRDRRTEEENFRKKEVLCPELPPGSAKRALPTCTSASPPQKKKPLDGEYFTLKIRGRKRFEMFRELNEALELKDAHATEESGDSRAHSSYLKTKKGQSTSRHKKTMVKKVGPDSD
notes: Kit control; also called pGBKT7-53
As to B4, in experiment [16], the binding result is “binds”.

B5: Lamin C fused to GAL4 DNA-BD (pGBKT7 vector), two-hybrid control (other)
chain: MKLLSSIEQACDICRLKKLKCSKEKPKCAKCLKNNWECRYSPKTKRSPLTRAHLTEVESRLERLEQLFLLIFPREDLDMILKMDSLQDIKALLTGLFVQDNVNKDAVTDRLASVETDMPLTLRQHRISATSSSEESSNKGQRQLTVSSEEVVSREVSGIKAAYEAELGDARKTLDSVAKERARLQLELSKVREEFKELKARNTKKEGDLIAAQARLKDLEALLNSKEAALSTALSEKRTLEGELHDLRGQVAKLEAALGEAKKQLQDEMLRRVDAENRLQTMKEELDFQKNIYSEELRETKRRHETRLVEID
notes: Kit control
B5: in experiment [17], the binding result was “no binding”.
